Data from publication PMC4646180.

Each substance was assayed against Ub-AMC (ubiquitin with 7-amino-4-methylcoumarin at its C terminus) (UniProt P0CG48).

Going from “MHV PLP2+ D1772R (from UniProt P0C6V0 1525-1911) (enzyme)” to “MHV PLP2+ D1807R (from UniProt P0C6V0 1525-1911) (enzyme)”, the Relative activity of WT, 500 nM Ub-AMC falls from 1.1% to 0.5%.

Going from “MHV PLP2+ F1812A (from UniProt P0C6V0 1525-1911) (enzyme)” to “MHV PLP2+ Y1824A (from UniProt P0C6V0 1525-1911) (enzyme)”, the Relative activity of WT, 500 nM Ub-AMC falls from 3.3% to 3%.

“MHV PLP2+ Y1824F (from UniProt P0C6V0 1525-1911) (enzyme)” showed a Relative activity of WT, 500 nM Ub-AMC of 70.3%.
